Square brackets hold non-standard residues; d marks the D form. Ends that are not written are not given here.

Common to all, as to assay type: physicochemical
Data set [1] is described as follows: Hydrogel formation of peptide-starPEG conjugates with 14-kDa-heparin. The conditions noted are these: peptide coupled to 10-kDa starPEG; 5 mM 14-kDa-heparin + 5 mM (2.5 mM) conjugate, 50 μl 1×PBS pH 7.4. As for the experimental part:
Following is the description of the production of the hydrogel networks. Hereby 14-kDa-heparin (25 mM, 2.5 mM) and peptide-starPEG conjugates (6.25 mM, 3.125 mM) were dissolved in physiologic phosphate buffer solution (1×PBS) water or cell culture medium with 2% fetal bovine serum (FBS). These solutions were dissolved in a ratio of 1:4 heparin:peptide-starPEG-conjugate by obtaining […] or 5 mM 14-kDa-heparin and 2.5 mM or 5 mM peptide-starPEG. The ligand/mol ratio was 2:1, 1:1 and 1:5 relative to the mol ratio of 14-kDa-heparin and the peptide-starPEG-conjugate. The mixtures were incubated within a time frame of one hour to overnight at […]. The gelation time spanned from present up to several hours depending on the applied peptide motif.
(§1) ATIII is a heparin-binding peptide known from the literature. All peptides are connected to a four-armed, maleimide functionalized 10-kDa-polyethylene glycol (starPEG). The hydrogel formation was tested in a 50 μI mixture, which contains 5 mM 14-kDa-heparin and 5 mM (2.5 mM) peptide-starPEG conjugate in phosphate buffer solution (1×PBS, pH 7.4). The deformation and penetration speed was analyzed through centrifuging the hydrogel in a 45° table centrifuge with 275 μm metal beads added to the surface. The deformation of the surface and the penetration of the metal beads were monitored in dependence on the applied force.
In addition to the peptide motif, a tryptophan was labeled with a one letter code W, for UV detection and purification and a cysteine, marked with the one letter code C, bound to the N-terminal end of the peptide with two glycine. By applying the Michael-addition-chemistry, the cysteine was coupled to the maleimide-functionalized 10-kDa-starPEG. […] This is the largest library of peptide-polymer-conjugates, for which each of the oligosaccharide dependent hydrogel formation was analyzed. To analyze the formation of hydrogels, all peptide-starPEG-conjugates were each mixed with 14-kDa-heparin in 50 μI phosphate buffer (1×PBS) to a final concentration of 5 mM. […]

A short description of data set [2]: Rheological gelation measurement (MCR 302, cone-plate). The conditions noted are these: for Storage moduli G′: 2 mM KA7-RGDSP-starPEG + 2 mM oligosaccharide, after 110 min of gelation; for Loss Factor at te / Storage modulus G′ at te: 1 mM KA7-RGDSP-starPEG + 1 mM 5DexS or 0.01 mM 500DexS. As for the experimental part:
The oligosaccharides were purchased as given in Table 9 and weighed out as required prior each experiment. Oligosaccharides and peptide-starPEG conjugates were dissolved in PBS (oligosaccharides at five-fold and peptide-starPEG at 1.25-fold of the final concentration) and mixed thoroughly. The samples were applied directly onto the measuring system. First, 80% of the final sample volume was provided by the peptide-starPEG solution. Second, the oligosaccharide solution was added to complete to 100% of sample volume.
The Modular Compact Rheometer MCR 302 (Anton Paar) was used with temperature control unit (P-PTD200+H-PTD200, Anton Paar) and cone-plate measuring system (CP20-0.3 and INSET I-PP20/SS, Anton Paar) for assessment of the mechanical properties of the hydrogels of different composition. The gelation measurement was performed at 20° C. with 1% oscillatory shear strain and a frequency of 1 Hz every 5 min for 2 hours. The data was analyzed with Excel (Excel 2013, Microsoft).
The following experiments studied the mechanical properties of hydrogels formed of different components. FIG. 14 summarizes the chosen parameters and measurement values. The storage modulus G′ and loss modulus G″ are calculated from the complex modulus G, which is recorded by the oscillating rheometer. The loss factor tan δ is further calculated by G″ divided by G′.

Data set [3] in a line: Hydrogel formation in different solvents. The following applies: 5 mM conjugate + 5 mM 14-kDa-heparin. The protocol:
Three respective different cases were tested in the hydrogel-formation stability test. […] The hydrogels were formed by mixing the final concentrations of respectively 5 mM peptide-starPEG-conjugate and 5 mM 14-kDa-heparin in 50 μl physiological phosphate buffer solution (1×PBS), Milli-Q-water or cell culture medium with 2% fetal bovine serum (FBS). The stability of the hydrogels was tested with the same solvent in which it was formed in 200 μl supernatant. The hydrogels were incubated at room temperature (24° C.), the supernatants were changed every day for at least three days in a row and the result after at least 3 days analyzed.

The nature of data set [4]: High-throughput centrifuge analysis of mechanical properties of the hydrogels (surface deformation, metal bead penetration). The following applies: for Deformation speed: 50 μl 1×PBS, 45° centrifuge; for Penetration speed: 275 μm metal beads. The protocol:
as §1
A comparative high-throughput analysis was performed regarding the mechanical properties of the hydrogels. In order to provide a fast high-throughput method for comparing small amounts of hydrogel, a tabletop centrifuge (5424R, Eppendorf, Hamburg, Germany) was used. For this purpose, 50 μl of the hydrogel were formed by mixing the peptide-starPEG-conjugates and 14-kDa-heparin in phosphate buffer (1×PBS, pH 7.4) to a final concentration of 5 mM (once 2.5 mM for KA7-starPEG). The mixture was incubated in 0.2 ml reaction vessels overnight. The deformation of the hydrogel surface was determined in reference to the 45° centrifuge rotor and the penetration of 275 μm metal beads in dependence on the force that has to be produced by the centrifuge. All experiments were repeated three times.
Hereby FIGS. 5A and B show a deformation of the surface of the 50 μl hydrogel in a 0.2 ml reaction tube, more specifically FIG. 5A below the speed required for deforming the surface, and FIG. 5B at the speed required for deforming the surface. FIG. 5C is a schematic representation of the penetration of a small spheres through 50 μl hydrogel in a 0.2 ml reaction tube depending on the force exerted by the 45° centrifuge.
The hydrogels were formed by mixing peptide-starPEG-conjugate and 14-kDa-heparin at 5 mM final concentration in 50 μl phosphate buffer (1×PBS). The analysis was performed by centrifuging the hydrogels in a 45° tabletop centrifuge with 275 μm metal beads on the gel surface. The deformation of the surface and the penetration of the spheres were recorded in dependence on the exerted force.

Data set [5] can be described thus: Stability of formed hydrogels against different solvents. The following applies: 24° C., at least three days. The protocol: In order to test the strength of the interaction between the peptide motif and the 14-kDa-heparin the formed hydrogels were tested with regard to different solvents. […] For this the peptide-starPEG-conjugates were mixed with 14 kDa-heparin in 50 μl in physiological phosphate buffer solution (1×PBS) to a final concentration of respectively 5 mM. Each solvent, i.e., physiological phosphate buffer solution (1×PBS), Milli-0-water, 1 M hydrochloric acid (HCl) 1 M sodium hydroxide solution (NaOH), saturated sodium chloride solution (NaCl), dimethyl sulfoxide (DMSO), ethanol and cell culture medium with 2% fetal bovine serum (FBS) were respectively added as 200 μl supernatant to the hydrogel. The hydrogel was incubated at a room temperature of 24° C. and the supernatants where exchanged every day for at least three days. All experiments were performed three times. Under none of the tested conditions the KA7-hydrogel could be destroyed. […] 2,2,2-trifuourethanlol (TFE) is known to destroy any type of secondary structures.

[6] abbreviates: 1 mM KA7-RGDSP-starPEG(40 kDa) + 1 mM oligosaccharide, te 120 min.
Setting [7] is: 2 mM KA7-RGDSP-starPEG(10 kDa) + 2 mM oligosaccharide, te 110 min (5DexS), 120 min (Hep).
The mark [8] stands for this setting: 2 mM KA7-starPEG(10 kDa) + 2 mM oligosaccharide, te 120 min.
Where [9] appears, read: te 120 min, sulfate sodium salt.
The mark [10] stands for this setting: 2 mM KA7-starPEG + 2 mM 5DexS or 0.02 mM 500DexS, te 120 min, sulfate sodium salt.
The mark [11] stands for this setting: 1.5 mM KA7-starPEG(10 kD) + 3 mM cyclodextrin sulfate, te 120 min.
[12] abbreviates: Cell culture medium with 2% FBS.
The mark [13] stands for this setting: PBS, 50 μl, result after at least 3 days.
Where [14] appears, read: 2.5 mM peptide-starPEG + 5 mM 14-kDa-heparin.
Where [15] appears, read: 5 mM peptide-starPEG + 5 mM 14-kDa-heparin.
Setting [16] is: supernatant 1xPBS, 5 mM conjugate + 5 mM heparin gel.
The mark [17] stands for this setting: supernatant Cell culture medium with 2% FBS.
Where [18] appears, read: supernatant Saturated NaCl solution.

As for “CWGGkAkAkAkAkAkAkA (CWGG[dK]A[dK]A[dK]A[dK]A[dK]A[dK]A[dK]A) [dKA7]”, the “Hydrogel formation with heparin” value in data set [1] is “neither formation of a hydrogel”.
Regarding Heparin [reference compound], the “Loss Factor at time point” value in data set [2] (setting [6]) is recorded as 0.0486; in data set [2] (setting [7]), 0.0193; in data set [2] (setting [8]), 0.0131. Besides, the figures for the “Storage modulus G′ at time point” value in data set [2] (setting [6]), in data set [2] (setting [7]) and in data set [2] (setting [8]) were 811 Pa, 12,104 Pa and 1,849 Pa, respectively. Further, in data set [2], the “Storage moduli G′” value is given as 12.1 kPa. For the same substance, the “Factor by which storage modulus G′ is lower than for 5DexS gels” value in data set [2] (2 mM KA7-starPEG, after 120 min of gelation) turned out to be 40.
Turning to “Dextran sulfate sodium salt [Peptide 5DexS]”, in data set [2] (setting [9]), the “Loss Factor at te” value was 0.00681. In data set [2] (setting [9]), the “Storage modulus G′ at te” value was 2,295 Pa. Besides, the “Loss Factor at time point” value in data set [2] (setting [6]) turned out to be 0.0105; in data set [2] (setting [7]), 0.00611; in data set [2] (setting [10]), 0.132; in data set [2] (setting [8]), 0.132. Besides, the “Storage moduli G′” value in data set [2] is 14.5 kPa. Also, the figures for the “Storage modulus G′ at time point” value in data set [2] (setting [7]), in data set [2] (setting [10]) and in data set [2] (setting [8]) were 14,486 Pa, 76,977 Pa and 76,977 Pa, respectively.
Consider γ-cyclodextrin sulfated sodium salt, for which, in data set [2] (setting [11]), the “Loss Factor at time point” value came to 0.0355 and the “Storage modulus G′ at time point” value is recorded as 30,749 Pa.
For the substance α-cyclodextrin sulfated sodium salt, in data set [2] (setting [11]), the “Loss Factor at time point” value is recorded as 0.0641 and the “Storage modulus G′ at time point” value is reported as 30,561 Pa.
Take CWGGKAKAKAKAKAKAKA [KA7]: the “Hydrogel formation in solvent” value in data set [3] (setting [12]), in data set [3] (setting [13]) and in data set [3] (water (Milli-Q)) was “formed” in each case. Also, the Deformation speed is on record as 43998 +/- 3139 m/s^2 in data set [4] (setting [14]) and greater than 148317 m/s^2 in data set [4] (setting [15]). In addition, the values for the Penetration speed in data set [4] (setting [14]) and in data set [4] (setting [15]) were 72780 +/- 6926 m/s^2 and 138919 +/- 16275 m/s^2, respectively. The “Stability of hydrogel against supernatant” value (from here on “Stability of hydrogel”) in data set [5] (supernatant 1M HCl), in data set [5] (supernatant 1M NaOH), in data set [5] (setting [16]), in data set [5] (setting [17]), in data set [5] (supernatant DMSO) and in data set [5] (supernatant Ethanol) was “Stable” throughout. Besides, the “Stability of hydrogel” value in data set [5] (setting [18]) and in data set [5] (supernatant Water) was “Stable” in each case.
CWGGRARARARARA [RA5]: in data set [4] (setting [15]), the Deformation speed is recorded as greater than 687 m/s^2 and the Penetration speed was greater than 687 m/s^2.
On to “Dextran sulfate sodium salt [Peptide 500DexS]”, for which, in data set [2] (setting [9]), the “Loss Factor at te” value is on record as 0.0307 and the “Storage modulus G′ at te” value is 1,658 Pa. In addition, in data set [2] (setting [10]), the “Loss Factor at time point” value is 0.0887 and the “Storage modulus G′ at time point” value is 34,694 Pa.
“CWGGKAFAKLAARLYRKA (Human) [ATIII, reference compound]”: the Deformation speed entry in data set [4] (setting [15]) was “gel shrank”.
As for CWGGRARARARARARARA [RA7], the “Hydrogel formation in solvent” value in data set [3] (setting [12]), in data set [3] (setting [13]) and in data set [3] (water (Milli-Q)) was “formed” each time. The Deformation speed in data set [4] (setting [15]) was 1069 +/- 579 m/s^2. Further, the Penetration speed in data set [4] (setting [15]) was 1952 +/- 491 m/s^2. Moreover, the “Stability of hydrogel” value is reported as “Stable; hydrogel was” in data set [5] (supernatant 1M HCl); “Stable” in data set [5] (supernatant 1M NaOH); “Stable; the surface” in data set [5] (setting [16]); “Stable” in data set [5] (setting [17]); “Stable” in data set [5] (supernatant DMSO); “Stable” in data set [5] (supernatant Ethanol). For the same substance, the “Stability of hydrogel” value in data set [5] (setting [18]) is recorded as “Not stable; hydrogel”; in data set [5] (supernatant Water), “Stable”.
On to β-cyclodextrin sulfated sodium salt, for which, in data set [2] (setting [11]), the “Loss Factor at time point” value turned out to be 0.062 and the “Storage modulus G′ at time point” value is given as 33,169 Pa.
